From article PMC4029776, “Transiently Produced Hypochlorite Is Responsible for the Irreversible Inhibition of Chlorite Dismutase” (Biochemistry, 2014)

B1: NdCld (chlorite dismutase from "Candidatus Nitrospira defluvii") (Nitrospira defluvii) (protein)
chain: ADREKLLTESGVYGTFATFQMDHDWWDLPGESRVISVAEVKGLVEQWSGKILVESYLLRGLSDHADLMFRVHARTLSDTQQFLSAFMGTRLGRHLTSGGLLHGVSKKPTYVAGFPESMKTELQVNGESGSRPYAIVIPIKKDAEWWALDQEARTALMQEHTQAALPYLKTVKRKLYHSTGLDDVDFITYFETERLEDFHNLVRALQQVKEFRHNRRFGHPTLLGTMSPLDEILEKFAQ

What was measured:
Arg183 = assay: kinetics; conditions: ferric heme enzyme, chlorite turnover (inferred from context); cited from earlier work
[1] = substrate: [O-][Cl+]O; assay: Clark-type O2 electrode, initial rates, Michaelis-Menten; type: biochemical, Nitrospira defluvii; conditions: pH 7.0, 50 mM phosphate, 30 °C, 50 nM enzyme, NaClO2 10-1000 μM

Molecule	pKa (Arg183)	Km [1] [µM]	kcat [1] [s^–1]
Chlorite dismutase (DaCld) (Dechloromonas aromatica)	∼pH 6.5	–	–
B1	–	138 ± 20	83 ± 4
